In article PMC12371696:
Ends that are not written are not given here.

What was measured:
[1] = molecular target: Trastuzumab with E5 Ecoil peptides fused at the C-termini of heavy and light chains (TZM-E5); assay: SEC-MALS; UPLC-SEC-MALS; TZM-Ex mixed with Kx-mRFP at 1:4 molar ratio (2 nmol + 8 nmol), 45 min at room temperature; BEH200 column, 0.2 M potassium phosphate, 0.2 M potassium chloride, 0.02% Tween-20, pH 7.0, 30 °C
[2] = molecular target: Trastuzumab with E5 Ecoil peptides fused at the C-termini of heavy and light chains (TZM-E5)

stoichiometry N (K5-mRFP per TZM-E5) [1] | tumor fluorescence (total radiant efficiency, area under the curve 3-336 h) after intravenous injection of the preformed TZM-E5/K5-CF750 complex in the SKOV3 xenograft mouse model ([p/s] × h /[uW/cm^2]) [2] | Molecule
4 | – | K5 Kcoil peptide fused to the N-terminus of monomeric red fluorescent protein (K5-mRFP) (designed binder)
– | 4.4e+13 | KVSALKEKVSALKEKVSALKEKVSALKEKVSALKEGGC(CF750 maleimide) [K5 Kcoil peptide (KVSALKE)5-GGC conjugated to CF750 maleimide near-infrared dye (K5-CF750)]
